Data as given in publication PMC4446446 (Nucleic Acids Research, 2015).

T1: SDR5C1, wild type, N-terminally His-tagged (human), Q99714
T1 chain: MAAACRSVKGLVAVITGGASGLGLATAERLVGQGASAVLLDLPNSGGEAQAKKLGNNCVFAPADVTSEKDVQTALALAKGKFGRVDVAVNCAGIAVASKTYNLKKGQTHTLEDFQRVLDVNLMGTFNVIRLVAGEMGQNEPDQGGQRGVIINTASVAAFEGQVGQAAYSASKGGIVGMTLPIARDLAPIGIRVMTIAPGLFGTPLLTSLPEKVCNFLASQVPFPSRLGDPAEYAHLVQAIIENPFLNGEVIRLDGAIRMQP

B1: SDR5C1 R226Q, N-terminally His-tagged (enzyme)
chain: MAAACRSVKGLVAVITGGASGLGLATAERLVGQGASAVLLDLPNSGGEAQAKKLGNNCVFAPADVTSEKDVQTALALAKGKFGRVDVAVNCAGIAVASKTYNLKKGQTHTLEDFQRVLDVNLMGTFNVIRLVAGEMGQNEPDQGGQRGVIINTASVAAFEGQVGQAAYSASKGGIVGMTLPIARDLAPIGIRVMTIAPGLFGTPLLTSLPEKVCNFLASQVPFPSQLGDPAEYAHLVQAIIENPFLNGEVIRLDGAIRMQP
B2: SDR5C1 P210S, N-terminally His-tagged (enzyme)
chain: MAAACRSVKGLVAVITGGASGLGLATAERLVGQGASAVLLDLPNSGGEAQAKKLGNNCVFAPADVTSEKDVQTALALAKGKFGRVDVAVNCAGIAVASKTYNLKKGQTHTLEDFQRVLDVNLMGTFNVIRLVAGEMGQNEPDQGGQRGVIINTASVAAFEGQVGQAAYSASKGGIVGMTLPIARDLAPIGIRVMTIAPGLFGTPLLTSLSEKVCNFLASQVPFPSRLGDPAEYAHLVQAIIENPFLNGEVIRLDGAIRMQP
B3: SDR5C1 K172A, N-terminally His-tagged (enzyme)
chain: MAAACRSVKGLVAVITGGASGLGLATAERLVGQGASAVLLDLPNSGGEAQAKKLGNNCVFAPADVTSEKDVQTALALAKGKFGRVDVAVNCAGIAVASKTYNLKKGQTHTLEDFQRVLDVNLMGTFNVIRLVAGEMGQNEPDQGGQRGVIINTASVAAFEGQVGQAAYSASAGGIVGMTLPIARDLAPIGIRVMTIAPGLFGTPLLTSLPEKVCNFLASQVPFPSRLGDPAEYAHLVQAIIENPFLNGEVIRLDGAIRMQP
B4: SDR5C1 N247S, N-terminally His-tagged (enzyme)
chain: MAAACRSVKGLVAVITGGASGLGLATAERLVGQGASAVLLDLPNSGGEAQAKKLGNNCVFAPADVTSEKDVQTALALAKGKFGRVDVAVNCAGIAVASKTYNLKKGQTHTLEDFQRVLDVNLMGTFNVIRLVAGEMGQNEPDQGGQRGVIINTASVAAFEGQVGQAAYSASKGGIVGMTLPIARDLAPIGIRVMTIAPGLFGTPLLTSLPEKVCNFLASQVPFPSRLGDPAEYAHLVQAIIENPFLSGEVIRLDGAIRMQP
B5: SDR5C1 R130C, N-terminally His-tagged (enzyme)
chain: MAAACRSVKGLVAVITGGASGLGLATAERLVGQGASAVLLDLPNSGGEAQAKKLGNNCVFAPADVTSEKDVQTALALAKGKFGRVDVAVNCAGIAVASKTYNLKKGQTHTLEDFQRVLDVNLMGTFNVICLVAGEMGQNEPDQGGQRGVIINTASVAAFEGQVGQAAYSASKGGIVGMTLPIARDLAPIGIRVMTIAPGLFGTPLLTSLPEKVCNFLASQVPFPSRLGDPAEYAHLVQAIIENPFLNGEVIRLDGAIRMQP

Columns and labels:
[1] = biological target: T1, SDR5C1, wild type, N-terminally …; assay: native gel or EMSA; conditions: remark: other sources report otherwise
native gel or EMSA = biological target: the molecule itself; assay: native gel or EMSA
SEC = biological target: the molecule itself; assay: SEC
[2] = biological target: B5; assay: pull-down
[3] = biological target: B2; assay: pull-down
[4] = biological target: B1; assay: pull-down
[5] = biological target: B4; assay: pull-down
[6] = biological target: B3; assay: pull-down

Binder	Tetramerized SDR5C1 (percent) (native gel or EMSA)	stoichiometry N (SEC)	other results
SDR5C1, wild type, N-terminally His-tagged, Q99714 1-261 (enzyme) MAAACRSVKGLVAVITGGASGLGLATAERLVGQGASAVLLDLPNSGGEAQAKKLGNNCVFAPADVTSEKDVQTALALAKGKFGRVDVAVNCAGIAVASKTYNLKKGQTHTLEDFQRVLDVNLMGTFNVIRLVAGEMGQNEPDQGGQRGVIINTASVAAFEGQVGQAAYSASKGGIVGMTLPIARDLAPIGIRVMTIAPGLFGTPLLTSLPEKVCNFLASQVPFPSRLGDPAEYAHLVQAIIENPFLNGEVIRLDGAIRMQP	–	–	Tetramerized SDR5C1 (percent) [1]: 100%
B1	26%	–	–
B2	100%	4	–
B3	100%	4	–
B4	25.8%	–	–
B5	100%	4	–
TRMT10C, native (untagged) (enzyme) MSSKIPAVTYPKNESTPPSEELELDKWKTTMKSSVQEECVSTISSSKDEDPLAATREFIEMWRLLGREVPEHITEEELKTLMECVSNTAKKKYLKYLYTKEKVKKARQIKKEMKAAAREEAKNIKLLETTEEDKQKNFLFLRLWDRNMDIAMGWKGAQAMQFGQPLVFDMAYENYMKRKELQNTVSQLLESEGWNRRNVDPFHIYFCNLKIDGALHRELVKRYQEKWDKLLLTSTEKSHVDLFPKDSIIYLTADSPNVMTTFRHDKVYVIGSFVDKSMQPGTSLAKAKRLNLATECLPLDKYLQWEIGNKNLTLDQMIRILLCLKNNGNWQEALQFVPKRKHTGFLEISQHSQEFINRLKKAKT	–	–	Complexed TRMT10C (mass percentage of the complex) [2]: 28.7%; Complexed TRMT10C (mass percentage of the complex) [3]: 39.7%; Complexed TRMT10C (mass percentage of the complex) [4]: 14.3%; Complexed TRMT10C (mass percentage of the complex) [5]: 9.3%; Complexed TRMT10C (mass percentage of the complex) [6]: 43%
